Like-named read-outs stand apart in the source and are kept apart here.

Data set [1] concerns the target T1, CspC (C-terminal His-tagged) (Staphylococcus aureus Newman, UniProt O33592 1-66). Description: EMSA. In general terms: A gel shift assay detects complexes by their altered migration in electrophoresis.
The target of data set [2] is T1, CspC (C-terminal His-tagged). Description: EMSA. The source holds these as a separate data set.

For GTCGACTTTTTTTTTTTTTTTTTTTT (ssDNA) [ssDNA1], in data set [1], the binding result is recorded as “binds”.
Take AAGTGTATAATGAAAG (ssDNA) [ssDNA3]: in data set [2], the binding result was “no binding”.
